T1: Recombinant human TACI/TNFRSF13B Fc chimeric protein, CF (hTACI-ECD-Fc) (human, UniProt O14836 1-165)
T1 construct: extracellular domain; bought reagent; not shown: Fc part of the bought chimera is not described
T1 sequence (looked up): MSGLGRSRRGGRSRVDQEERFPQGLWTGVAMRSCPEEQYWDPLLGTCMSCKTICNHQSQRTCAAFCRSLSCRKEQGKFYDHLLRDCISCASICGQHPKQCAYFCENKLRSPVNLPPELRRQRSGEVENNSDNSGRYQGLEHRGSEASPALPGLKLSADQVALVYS

T2: hBCMA-ECD-Fc (fusion protein of human BCMA extracellular domain Met1-Ala54 and human IgG1 Fc fragment … (human, UniProt Q02223 1-54))
T2 construct: range 1-54; also the immunogen; also called soluble extracellular domain of human BCMA; not shown: human IgG1 Fc fragment, Pro100-Lys330
T2 sequence (looked up): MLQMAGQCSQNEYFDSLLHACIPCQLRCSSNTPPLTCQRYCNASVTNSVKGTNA

T3: human BCMA on cells (L-BCMA+, K562-BCMA+, A549-BCMA-1D6) (human, UniProt Q02223 1-184)
T3 construct: whole, on cells; the cell line of each assay is named under assay; also called L-BCMA-1E6-A4; K562-BCMA-B22D8
T3 sequence (looked up): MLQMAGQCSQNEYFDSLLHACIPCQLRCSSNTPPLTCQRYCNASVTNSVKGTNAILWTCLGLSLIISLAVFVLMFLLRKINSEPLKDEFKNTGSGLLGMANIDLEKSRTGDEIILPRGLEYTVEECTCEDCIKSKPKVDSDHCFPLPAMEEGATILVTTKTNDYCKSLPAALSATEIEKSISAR


Key:
[1] = target: T4, cynoBCMA-ECD-Fc (machin BCMA extracellular domain Fc fusion) (machin); assay: ELISA, hybridoma supernatant
T4 construct: extracellular domain; also called soluble extracellular domain of machin BCMA

[2] = target: T5, Recombinant hFc fusion protein control (NC-Fc); assay: ELISA, hybridoma supernatant
T5 construct: negative control antigen of the screens; also called NC-hFc

[3] = target: T1, Recombinant human TACI/TNFRSF13B Fc …; assay: ELISA, purified hybridoma antibody
[4] = target: T2, hBCMA-ECD-Fc (fusion protein of human …); assay: ELISA, hybridoma supernatant
[5] = target: T3, human BCMA on cells (L-BCMA+, …); assay: FACS, hybridoma supernatant, BCMA+ cells; also: test concentration or dose not given here
[6] = target: T2, hBCMA-ECD-Fc (fusion protein of human …); assay: ELISA, purified hybridoma antibody
[7] = target: T4, cynoBCMA-ECD-Fc (machin BCMA …); assay: ELISA, purified hybridoma antibody
[8] = target: T2, hBCMA-ECD-Fc (fusion protein of human …); assay: ELISA, chimeric antibody supernatant; also: test concentration or dose not given here
[9] = target: T3, human BCMA on cells (L-BCMA+, …); assay: FACS, chimeric antibody supernatant, L-BCMA+ cells; also: test concentration or dose not given here

| Binder | ELISA (OD450 nm) [1] [OD450] | ELISA (OD450 nm) [2] [OD450] | binding result [3] | ELISA (OD450 nm) [4] [OD450] | FACS (MFI) [5] [MFI] | EC50 [6] [pM] | EC50 [7] [pM] | ELISA (OD450 nm) [8] [OD450] | FACS (MFI) [9] [MFI] |
| --- | --- | --- | --- | --- | --- | --- | --- | --- | --- |
| hybridoma antibody 152D8E8 (mAb013) (antibody, IgG1, V domains shown, murine, IgG1,κ; re-named CP09; also called CP09) VH: QVTLKESGPGILQSSQTLSLTCSFSGFSLNTSGMGVNWIRQSSGKDLEWLAHIYWNDDKRYNPSLKSRLTISKDTSRNQVFLRITSVDATDTATYFCCRSRLSFDYWGHGTTLTVSS VL: DIKMTQSPSSMYVSLGERVTITCKASQDINRNLSWFQQKPGKSPKTLIYRANRLVDGVPLRFSGSGSGQDYSLTISSLEYEDMGIYYCLQYDEFPRTFGGGTKLEIK | 3.31 | 0.23 | no binding | – | – | – | – | – | – |
| hybridoma antibody 113B3F12 (mAb008) (antibody, IgG2b, V domains shown, murine hybridoma antibody, IgG2b,κ) VH: EVQLQQSGPVLVKPGASVKMSCKASGYTFTDYYMNWVKQSHGKSLEWIGVINPYNGGTDYNQKFKGKATLTVDKSSSTAYMELNSLTSEDSAVYYCARRRESYGTSYQGAYFDSWGQGTTLTVSS VL: DIQMTQTTSSLSASLGDRVTISCRASQDISNYLNWYQQKPDGTVKLLIYYTSRLHSGVPSRFSGSGSGTDYSLSISDLEQEDIATYFCQQVITLPWTFGGGTKLEIK | 0.18 | 0.14 | – | 3.9 | 3890 | 150 | – | – | – |
| hybridoma antibody 99B3G3 (mAb002) (antibody, IgG1, V domains shown, murine hybridoma antibody, IgG1,κ; re-named CP02; also called CP02) VH: EVQLQQSGPVLVKPGASVKMSCKASGYTFTDLYMNWVKQSHGKSLEWIGVINPYNGGTSYNQKFKAKATLTVDKSSITAYMELNSLTSEDSAVYYCARGDSIYVMDYWGQGTSVTVSS VL: not shown | 3.65 | 0.14 | no binding | 3.68 | 1930 | 32 | 230 | – | – |
| hybridoma antibody 100H2D12C6 (mAb009) (antibody, IgG1, V domains shown, murine, IgG1,κ) VH: EVQLQQSGPVLVKPGASVKMSCKASGYTFTDLYMNWVKQSHGKSLEWIGVINPYNGGTSYNQKFKAKATLTVDKSSITAYMELNSLTSEDSAVYYCARGDSIYVMDYWGQGTSVTVSS VL: not shown | 3.48 | 0.13 | no binding | 3.37 | 1140 | 33 | 33 | – | – |
| hybridoma clone 97B8G8D12 (antibody, V domains shown, murine hybridoma supernatant; gave no antibody in small-batch production) VH: EVQLQQSGPVLVKPGASVKMSCKASGYTFTDLYMNWVKQSHGKSLEWIGVINPYNGGTSYNQKFKAKATLTVDKSSITAYMELNSLTSEDSAVYYCARGDSIYVMDYWGQGTSVTVSS VL: not shown | 3.37 | 0.13 | – | 3.06 | 358 | – | – | – | – |
| hybridoma antibody 143D6F4 (mAb011) (antibody, IgG2b, V domains shown, murine, IgG2b,κ; re-named CP07; also called CP07) VH: EVQLQQSGPVLVKPGASVKMSCKASGYTFTDYSLNWVKQSHGKSLEWIGVVNPYNGGTSHNQKFKGKATLTVDKSSSTAYMELNSLTSEDSAVYYCARPDSIYVMDYWGQGTSVTVSS VL: not shown | 3.4 | 0.2 | no binding | 3.26 | 1510 | 150 | 170 | – | – |
| hybridoma antibody 151A9A4 (mAb012) (antibody, IgG2b, V domains shown, murine, IgG2b,κ; re-named CP08; also called CP08) VH: EVQLQQSGPVLVKPGASVKMSCKASGYTFTDYSLNWVKQSHGKSLEWIGVVNPYNGGTTYNQKFKGKATLTVDKSSSTAYMELNSLTSEDSAVYYCARPDSIYVMDSWGQGTSVTVSS VL: not shown | 3.4 | 0.24 | no binding | 3.34 | 2920 | 170 | 150 | – | – |
| hybridoma clone 107A9A4D2 (antibody, V domains shown, murine hybridoma supernatant) VH: EVQLQQSGPVLVKPGASVKMSCKASGYTFTDLYMNWLKQSHGKRLEWIGVINPYNGGTSYNQKFKGKATLTVDKSSSTAYMDLNSLTSEDSAVYYCARGDSIYVMDYWGQGTSFTVSS VL: not shown | 3.58 | – | – | 3.51 | 4650 | – | – | – | – |
| hybridoma clone 107A11F1B7 (antibody, V domains shown, murine hybridoma supernatant; re-named CP04; also called CP04) VH: EVQLQQSGPVLVKPGASVKMSCKASGYTFTDLYMNWLKQSHGKRLEWIGVINPYNGGTSYNQKFKGKATLTVDKSSSTAYMDLNSLTSEDSAVYYCARGDSIYVMDYWGQGTSFTVSS VL: not shown | 3.5 | – | – | 3.53 | 5180 | – | – | – | – |
| hybridoma antibody 105C10F1 (mAb004) (antibody, IgG2b, V domains shown, murine hybridoma antibody, IgG2b,κ; re-named CP03; also called CP03) VH: EVKLLQSGGGLVQPGGSLKLSCAASGIDFSRYWMSWVRRAPGKGLEWIGEINPDSSTINYAPSLKDKFIISRDAAKNTLYLQMSKVRSEDTALYYCATLYYDYDGDYAMDYWGQGTSVTVSS VL: DIVMTPSQKFMSTSVGDRVSVTCKASQNVGTNVAWYQQKPGQSPKALIYSASYRYSGVPDRFTGSGSGTDFTLTISNVQSEDLAEYFCQHYNSYPFTFGSGTKLEIK | 0.18 | 0.1 | no binding | 3.42 | 1960 | 38 | – | – | – |
| hybridoma antibody 6G10-1D7 (mAb001) (antibody, IgG1, V domains shown, tested as supernatant and purified; also called CP01) VH: EVQLQQSGPELVKPGASMKISCKASDYSFTDYIMTWVKQSHGKNLEWIGLINPYNGGTTYNQKFKDKATFTVDKSSTTAYMDLLSLTSEDSAVYYCARRGITTDYYTMDYWGQGTSVTVSS VL: DIVMTQSQRFMSTSVGDRVSITCKASQSVGTAVAWYQQTPGQFPKLLIYSTSNRYTGVPDRFTGSGSGTDFTLTISNMQSEDLADYFCQQYSTYPLTFGSGTKLELK | 1.95 | 0.08 | no binding | 2.9 | 3880 | 34 | – | – | – |
| chimeric antibody of hybridoma 6G10-1D7 (antibody, human IgG1, kappa, V domains shown, IgG1,κ chimeric antibody, HEK 293T supernatant) VH: EVQLQQSGPELVKPGASMKISCKASDYSFTDYIMTWVKQSHGKNLEWIGLINPYNGGTTYNQKFKDKATFTVDKSSTTAYMDLLSLTSEDSAVYYCARRGITTDYYTMDYWGQGTSVTVSS VL: DIVMTQSQRFMSTSVGDRVSITCKASQSVGTAVAWYQQTPGQFPKLLIYSTSNRYTGVPDRFTGSGSGTDFTLTISNMQSEDLADYFCQQYSTYPLTFGSGTKLELKR | – | – | – | – | – | – | – | 2.35 | 3470 |
| hybridoma antibody 109C5F3C1 (mAb010) (antibody, V domains shown, murine; re-named CP06; also called CP06) VH: EVQLQQSGPVLVKPGASVKMSCKVSGYTFTDYYMNWVKQSHGKSLEWIGVITPYNGANRYNQKFKGKATLTVDKSSSTAYMEVSSLTSEDSAVYYCARGDSIYVMDYWGQGTSVIVSS VL: not shown | 3.41 | 0.57 | no binding | 3.57 | 2890 | 180 | 180 | – | – |
| hybridoma antibody 102A12H6 (mAb003) (antibody, IgG1, V domains shown, murine hybridoma antibody, IgG1,κ) VH: EVQLQQSGPELVKPGASVKISCKASGYSFTGYYMNWVKQSPEKSLEWIGEINSSTGGTTYNQKFKAKATMTVDKSSNTAYMELKSLTSEDSAVYYCRYYGSDWHFDVWGTGTTVTVSS VL: QIVLTQSPALMSASPGEKVTMTCSASSSVSYMYWYQQKPRSSPKPWIYLTSSLASGVPARFSGSGSGTSYSLTISTMEAEDAATYYCQQWSSDPLTFGAGTKLELK | 3.53 | 0.12 | no binding | 3.6 | 762 | 58 | 62 | – | – |
